Assay: soluble on expression in E. coli; label from the status in PepcDB or PDB records

Sequence | soluble on expression in E. coli
MSHHFRLAKGIPHVVDATPPHSMYNSPISIHYLPKRASSADPFKRKALSKSQRELTDFVNGRNGDPHGLRLPLPIRSSLTDLVKPKLLENRNYQPPRRKTPSKDHHSKAEENSKKAKKLERINKFKDAVLTDLIENDTYSDQMIMNSIRRHMEKLAGVISWDDLEKAADELIKKIGLNTNVQNSRRSSRSRDKNQRFNKPPLPYKVERIGSAQSLESLSSPSSSSAKTSSSSSSSSFSTSSQETNSSESS | not soluble
MLRSLVQNPKVRARVLERVDEFRLNNLSNEEVWFRELTLCLLTANSSFISAYQALNCLGQKIYYANEEEIRNILKSCKYRFYNLKAKYIIMAREKVYGRLKEEIKPLADEDQQLARERLLNIKGIGMQEASHFLRNVGYFDLAIIDRHIIDFMRRIGAIGETNVKQLSKSLYISFENILKSIASNLNMSVGILDLFIWYKETNTIVK | soluble
MGSDKIHHHHHHMQVRTFKGPSAKTVLDMIKAEIGPEAVILSSRDCSGDGVTWCEMTVGVEREAAAAPRMGRDEPAAGDQTPPAGWDEWHREWDEIKGHIMALMKPALRLDELAPRQRVALEYLEREGVEDNVILALYRRLRGAPSLSVLEPLSAVVPVKGWGGADWPQKMQIVCGPSGVGKTSAVVRMALALRRQNAGVRICVLNADSQRGSGRMVLRHYAELCGMGYHEISGPADAAALLGELDGYDKILVDTPVPGRGATLRSLLEETGLDVLEQQVPAAVQLVMSPLYGDAQISFFLRQYECGLPCGLVWTKLDEACNFGALINVPAASGLPVTALSFGSGLKNSLASARGTMIWRLVFKKQLPGDVAAR | not soluble
MAHHHHHHMAKDNKGKVKKAAGEETVKYYRVKGKKKILIPVKAKKTIAKKYYGRKLASKKKYIVQGKMRKSIEVGKVAIILSGKHMGKRCIITKVLTSGLLAVVGPYEVNGVPLKRVNPRYVVVTSTNIFKFENMAGLKDEFVKLAEQIEDNSFVKSLEIKKKQKKLLSKKNEGLFMNDVITKIKELMKEDPKMQQLQKIQKEIGTLLKDEIAKNKIFAEYLKSKFTLRNDMALHKMKF | not soluble
MGSDKIHHHHHHMKLAYFVIPHIGGTYSVFKHLRKGLAAYDIDVRWLGVCKETYGLPLDLQGETAFGQLLRMPVNLSERDCAARMAAAIENGGFDGVIVNVLGDQLQTNIARYLPEGILRILVVHNISPGTYAAARSVRDYAHVTIGVSERCRADLVARNGFPKDRTYAIPNAVDSDAFRSQAVRRVNRGPELKVLFVGRIEDASKGVMWLREILDGSPEAVRLTIVGDGPDMGKLRRRLASHDDRVSYAGSVQLSDIPVIMASHDVLIMPSRFEGLGMTMIEAMAGGCVPVVSHIRGVTDTIVEPGRNGFLFPIGNYTAAANAIGRLHADRDLLERMSIAGKEMVLNRFSIERMAARYNEVIAMTLNDRPGLSTVLRMEDWSIPAGLRPGLRTYLPLPLKNWLRVVRERL | not soluble
MGSDKIHHHHHHDPLESMNRGIYKFNDTADKAVLKPIAGAYKAVLPSPIRTGVNNFFTNLGTFTSLVNNILQLELGKAMDNTGRLLINSTIGIGGLVDVASMDGVPNHRADFGQTLGKWGVGSGAYLVLPFLGPSTLRDTAGLTIDTLYFDPIQYTNHVRERNQLRMLSFIDLRSQYLPASDLIDDAALDPYIFMREAYLERRHQFVTGEASSFDDFDDDDEEVTPPEPQ | not soluble
MGSDKIHHHHHHMKKSERLNQELFFLRTHPQFNLNQLMKTFGISKSTALRDIEALENLGVPLYVENGRYGGYRVLNKPLLPPIYFNENEVLAIFFSLQLLKLVAESPFGHSYQQIKQKLLHSLDEPTQFKISQMSKVVYYEGIEQVEAPGNLEQLFHCILAQQVIQFNYTRYEATTKKILPTRLTILEGYWYCSGYDVTKKAWRTYRCDFMEAIQQLNQTLDFTTEELKESYRHQQTTARTIPFKAIITEKGKEFFYKHRFDNIQLEETPTQCFLVGQIHPTETQFLANYFMGFGEEVTILDPVQVKQAYVESIMRIQKKYQE | not soluble
MGSDKIHHHHHHMTSAANLVRITQPAISRLIRDLEEEIGISLFERTGNRLRPTREAGILFKEVSRHFNGIQHIDKVAAELKKSHMGSLRVACYTAPALSFMSGVIQTFIADRPDVSVYLDTVPSQTVLELVSLQHYDLGISILAGDYPGLTTEPVPSFRAVCLLPPGHRLEDKETVHATDLEGESLICLSPVSLLRMQTDAALDSCGVHCNRRIESSLALNLCDLVSRGMGVGIVDPFTADYYSANPVIQRSFDPVVPYHFAIVLPTDSPPPRLVSEFRAALLDALKALPYETI | not soluble
MANLFKLGAENIFLGRKAATKEEAIRFAGEQLVKGGYVEPEYVQAMLDREKLTPTYLGESIAVPHGTVEAKDRVLKTGVVFCQYPEGVRFGEEEDDIARLVIGIAARNNEHIQVITSLTNALDDESVIERLAHTTSVDEVLELLAGRK | soluble
GYSNAGLVNNLAGKLIANYWLDKVYSKEEGYAHRNGDVHIHDLDCLTGYCAGWSLRSLLNEGFNGVRGRVESRAPKHLREALGQMANFLGILQSEWAGAQAFSSFDTYLAPYVFRDQLEFKEIKKAIKSFVYNLNVPARWGQSPFTNVTIDWTVPADLKDQIPTRNDRHLFEDIQEDALLVQEAQKRGASSLLSMTYKYFQAEMNLINRAFYEVMTEGDKTGQPFTFPIPTVNITEDFDWHGENTDLLFENTAKIGSSYFQNFIGSQYIRNEKGELVENPEAYKPNAVRSMCCRLQLDLRELLKRGGGLFGSAEMTGSIGVVTLNMARLGYRFRGDREGLMAELTKLMDLSKSTLEKKRQAVTELFHRGLYPYTKRYLPGFNNHFSTIGVNGINEMIRNFTNDQDNISSPSGMAFATEILEFMRERIRSYQEETGNLYNLEATPAEGTTYRFAKEDKKRYPQIIQAGMEENVYYTNSSQLPANFTDDPFEALTLQDELQCKYTGGTVLHLYMREKISSAEACRKLVKTVITSYKLPYITITPVFSVCPKHGYLRGEHEYCPLCDEEALLEIEQSQCC | not soluble
MGSDKIHHHHHHMQTEVFSDIFPLLSTATPQTLEWLLNIAIDHEYPTGRAVLMEDAWGNAVYFVVSGWVKVRRTCGDDSVALAILGRGDFFGEMAILDESPRSTDVIALSPVKLLSISRERFIQILFKDPQLHHRMLQLMVRRLRQINQRLQIRSSPPAVKLAHTLVSLGESYGQESEQGREIFNIPFKDLAEVTEIGVEETSKIMDKLHDKGWIKIDSANNIIYLINFKQLLNLAGKV | not soluble
MGSDKIHHHHHHMETLLKISGVDKSFPGVKALNNACLSVYAGRVMALMGENGAGKSTLMKVLTGIYSKDAGTIEYLNRSVNFNGPKASQEAGISIIHQELNLVGNLTIAENIFLGREFKTSWGAINWQKMHQEADKLLARLGVTHSSKQLCAELSIGEQQMVEIAKALSFESKVIIMDEPTDALTDTETEALFNVIRELKAENRGIVYISHRLKEIFQICDDVTVLRDGQFIGERVMAEITEDDLIEMMVGRRLDEQYPHLSQEKGECVLDVKHVSGSGIDDVSFKLHAGEIVGVSGLMGAGRTELGKLLYGALPKTAGKVRLKNQEIENRSPQDGLDNGIVYISEDRKGDGLVLGMSVKENMSLTSLDHFSQKGGIRHQAEKMAVDDFILMFNIKTPNRDQQVGLLSGGNQQKVAIARGLMTRPNVLILDEPTRGVDVGAKKEIYQLINEFKKEGLSILMISSDMPEVLGMSDRVLVMREGKISAEFSREEATQEKLLAAAIGK | not soluble
MGSDKIHHHHHHMEWIDRFIELLFYGEKEEAYKLKFDHFPRRLYKYEVIDEKRLLALKNNKIWFANPDKLNDPFDSCGVFFDKKVLCNYTNKKSIDEYIDGLKRNIKVCCFSEELNSMPMWAHYANNHTGICIEYDFSKLNYMSEFSKYIFPIRYETEKYDITKFLERIFKEEAEERMYLLFFLMQIKHVSWSYEKEWRIILKAYEDKNEGIVCPIKPEGIYLGLNCSEENKEKLKRIVVENIKCPIYEIEKTEGKLFEFKTKNVSEKNYK | not soluble
MGSDKIHHHHHHMEHISQLTAEIRDKAAYPDILVISRIFLPKEAVIGEYMYNRCLQDPERVIVLAASCSGDKVFDEGQQFPVYRWFYPRYWRSGFVGNILKPFVNIVCSFVLAIKLYFRYHYRYIEWGHGYDFPSLLLLSYLLPIRFFIYLHGNDFLCTLHNPVLRSLFKLTLKRAEGIVCNSSYTQDYLRTALRLDTPTYVINPVIRPEKFGNNVGSPSSLDDLRVRVRQAYNIPDSAIVILSIGRLVKHKAFDQVIDNIPLLLTFGVDVHYIICGEGPSESELKSLVHRLRVDKCVHFAGYVAERELAGYYAACDIFAMLTLLDSKPNNMEGFGMVYLEASYFGKPIIAPRLGGVLDTVQHEENGILVNPNSGYEVFQAFNRLCKDQQLREQLGRKGKELAKRRTLHRSLYKSEGKNPIL | not soluble
PMMPPVGVQASILSHDTIRITWADNSLPKHQKITDSRYYTVRWKTNIPANTKYKNANATTLSYLVTGLKPNTLYEFSVMVTKGRRSSTWSMTAHGTTFEL | soluble
MAGDPNSMMIARTLSIFIGTLLLATCSIPTRLNIPTIAITDHPKYKLLLILIDGLRADALEHGQAPQLARLASDGVHARWMTPSYPALTLPNAYTLITGLRPDHHGIVHNTMEDPLLGAFESERQEAISNGRWWGGEPIWVSAEHAGIRSATFLWPGSEASIAGTRPSRWYAYNKHISADTQITQALRWLNERGPDAPRLVILRFEQVNTAGDNFGPDSPQYAAAVNMIDSAIGRLIDSLRQHGKLTDTDVIVVSDQGIAPIPGDHAVPLERIVQLSDVHVVSDGQVLGITPLPGHESKVEAMVLGAHATYDCWRKQALPTHWHYGTHPRIPNIVCQMHEGWNALSAAQITKRNPLQMGGSSGFDPMLPSMRAVFLANGPSFMPNLLLNPINNVDIYPLLARLLGIAMAPNDGNPRALLQALRTSNTANGYTYSKRNALHLEHHHHHH | not soluble
MDIGDNSKFDSATDLPVEQEQEQETEQEGEPEESSEQDLVEEVDWKDIPVPADAGPNMKWEFQEISDNFEYEAPADNKGSEFLEKWDDFYHNAWAGPGLTEWKRDRSYVADGELKMWATRKPGSDKINMGCITSKTRVVYPVYIEARAKVMNSTLASDVWLLSADDTQEIDILEAYGADYSESAGKDHSYFSKKVHISHHVFIRDPFQDYQPKDAGSWFEDGTVWNKEFHRFGVYWRDPWHLEYYIDGVLVRTVSGKDIIDPKHFTNTTDPGNTEIDTRTGLNKEMDIIINTEDQTWRSSPASGLQSNTYTPTDNELSNIENNTFGVDWIRIYKPVEKLEHHHHHH | soluble
MGSDKIHHHHHHMRILSGMRPTGKLHIGHLVGALENWVKLQEEGNECFYFVADWHALTTHYDDVSKLKEYTRDLVRGFLACGIDPEKSVIFVQSGVKEHAELALLFSMIVSVSRLERVPTYKEIKSELNYKDLSTAGFLIYPVLQAADILIYKAEGVPVGEDQVYHIELTREIARRFNYLYDEVFPEPEAILSRVPKLPGTDGRKMSKSYGNIINLEISEKELEQTILRMMTDPARVRRSDPGNPENCPVWKYHQAFDISEEESKWVWEGCTTASIGCVDCKKLLLKNMKRKLAPIWENFRKIDEDPHYVDDVIMEGTKKAREVAAKTMEEVRRAMNLMF | soluble
MQGLTMDDISLSIARNMFHLQVYESDGVRFEDLFSKIMYYKSPDFQQVKPYGNIGDRKNDGFIKGQGVYYQVYAPEDASNNVLAAVNKIKDDFEGLRDYWHDICPIKKYYFVLNDKYKGSLPQLHKELIVLQSDFNLIDTGVIVAKDLERELFNLPDDMIRSVVGHLPDIDHEEYMFVSGFTCFISAWINFEKIARHKVFSAKQPNRPLFIGKVVNALVKNKIISRQDATFIKKITEVRNSLVHGVSMLVPKKNEIDMLIFITEKIKPAGVCRLD | not soluble

From the DeepSol protein solubility set
